Patent US6846645B2, “Multiplexed enzymatic assays” (Aclara Biosciences, Inc., priority 2000, dated 2005)

Experiments:
Receptor II kinase [1] = experiment: Screening assay for competitive inhibitors: competition between insulin β chain and EGF, monitored by receptor II kinase activity; format: biochemical
Protocol: Before adding kinase substrate, incubate the mixture for 5 min to activate receptor II kinase by binding to insulin β. The incubation was done at room temperature for 30 min. Either 10 μL of 200 mM EDTA is added or the sample is frozen to stop the reaction before analysis. For the frozen sample, analysis was performed immediately after thawing the samples. Analysis was done on a modified Henry chip with 5 mm effective separation length. The injection was performed by applying 400 V at well #2 for 45 s while grounding other wells. The separation conditions are: 0 V for Well #1, 400 V for well #2 and 4, 700 V for well #3.

Receptor II kinase [2] = experiment: Receptor II assay: ligand enhancement of receptor II kinase activity; format: biochemical; conditions: saturating (high) ligand concentrations, 25 μM substrate, fixed amount of receptor II
Protocol: Before adding kinase substrate, incubate the mixture for 5 min to activate receptor II kinase by binding to insulin β. The incubation was done at room temperature for 30 min. Either 10 μL of 200 mM EDTA is added or the sample is frozen to stop the reaction before analysis. For the frozen sample, analysis was performed immediately after thawing the samples.
Analysis was done on a modified Henry chip with 5 mm effective separation length. The injection was performed by applying 400 V at well #2 for 45 s while grounding other wells. The separation conditions are: 0 V for Well #1, 400 V for well #2 and 4, 700 V for well #3.
As another example, receptor II (an insulin-related receptor) was studied in connection with insulin-like growth factor (IGF). A significant enhancement (>4 fold) in receptor II kinase activity was observed. Other ligands tested include insulin, insulin α and β chain. Both insulin and insulin β chain stimulated this receptor kinase activity by as much as 20 fold when a high concentration was used (Table 2). […] For this experiment, 25 μM substrate was used with a fixed amount of receptor II and various amounts of ligands to ensure a saturated binding between receptor and ligand.

extent of competition with activating ligand (Receptor II kinase [1]; higher insulin β concentration (15 μM), FIG. 14A)	extent of competition with activating ligand (Receptor II kinase [1]; lower insulin β chain concentration of 3 μM, FIG. 14B)	IC50 (Receptor II kinase [1]; read-out: IC50 of EGF competing with insulin β chain activation of receptor II kinase, insulin β chain at 3 μM and 15 μM, fixed receptor concentration) [nM]	Substance	Receptor II Kinase Activity Enhancement (fold) (Receptor II kinase [2])	Receptor II Kinase Activity Enhancement (fold) (Receptor II kinase [2]; listed as Insulin α chain)
did not show complete competition	near complete competition	200 to 300	Epidermal growth factor [EGF]		
			Insulin α chain	˜3 fold	about 3 fold
			Insulin β chain	>20 fold	
			insulin	>20 fold	
